PMC4059916, “VARP Is Recruited on to Endosomes by Direct Interaction with Retromer, Where Together They Function in Export to the Cell Surface” (Developmental Cell, 2014)
Residue numbers refer to the chain shown, from its start. Names may count otherwise.

T1: SeMet-Rab32 1-225 (Q85L/V100M/Q153M/V158M/I192M) (UniProt Q13637 1-225, Q85L | V100M | Q153M | V158M | I192M, selenomethionine (SeMet protein))
T1 construct: Rab32 residues 1-225; also called SeMet-Rab32Q85L; source: E. coli B834, M9 media (seleno-methionine), purified
T1 sequence (looked up): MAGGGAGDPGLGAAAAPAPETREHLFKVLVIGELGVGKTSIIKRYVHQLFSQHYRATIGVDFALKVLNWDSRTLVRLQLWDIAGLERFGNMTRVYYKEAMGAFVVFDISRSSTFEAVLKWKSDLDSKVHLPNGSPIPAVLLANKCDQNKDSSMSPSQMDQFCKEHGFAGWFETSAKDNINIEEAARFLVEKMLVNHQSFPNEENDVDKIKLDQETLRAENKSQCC

B1: VARP fragment with the second Cys-rich motif, 4C2 (C711S/C715S/C717S/C720S), as used in ITC (domain or fragment)
chain: TEEDLEDAEDTVSAADPEFSHPLSQSPKSAPAQKRLAKVPASGLGVNVTSQDGSS
notes: VARP; source: E. coli, purified
B2: Rab32 1-225 (Q85L), GTP hydrolysis-defective mutant, GST removed (enzyme, UniProt Q13637 1-225, looked up)
chain: T1 sequence (looked up) with M100V, M153Q, M158V, M192I
notes: Rab32, residues 1-225; limits 1-225 are printed for the crystallised construct; also called Rab32(Q85L); Rab32Q85L
B3: VARP451-640His6 Y550A (domain or fragment, human, UniProt Q96NW4 451-640, looked up)
chain: PSVVTPFSRDDRGHTPLHVAAVCGQASLIDLLVSKGAMVNATDYHGATPLHLACQKGYQSVTLLLLHYKASAEVQDNNGNTPLHLACTYGHEDCVKALVAYDVESCRLDIGNEKGDTPLHIAARWGYQGVIETLLQNGASTEIQNRLKETPLKCALNSKILSVMEAYHLSFERRQKSSEAPVQSPQRSVD
notes: also called VARP(Y550A); source: E. coli Rosetta 2 pLysS, purified; not shown: His6, C-terminal, kept
B4: VARP451-640His6 (first ankyrin repeat domain, ANKRD1), wild type (domain or fragment, human, UniProt Q96NW4 451-640, looked up)
chain: B3 chain with A100Y
notes: VARP (VPS9-domain ankyrin repeat protein); also called VARP ANKRD1; VARP-ANKR domain 1; source: E. coli Rosetta 2 pLysS, purified (GSH-sepharose, PreScission cleavage, Ni-NTA agarose, Superdex 75); not shown: His6, C-terminal, kept
B5: VARP451-640His6 K546D (domain or fragment, human, UniProt Q96NW4 451-640, looked up)
chain: B3 chain with K96D, A100Y
notes: also called VARP(K546D); source: E. coli Rosetta 2 pLysS, purified; not shown: His6, C-terminal, kept
B6: VARP451-640His6 L513D (domain or fragment, human, UniProt Q96NW4 451-640, looked up)
chain: B3 chain with L63D, A100Y
notes: source: E. coli Rosetta 2 pLysS, purified; not shown: His6, C-terminal, kept

Legend:
Settings in all cases: both partners purified
[1] = molecular target: VPS29, recombinant, as used in ITC (UniProt Q9UBQ0 1-182); assay: ITC; recombinant VARP Cys-rich motif fragments and VPS29; who was titrated is not told
[2] = molecular target: T2, VARP fragment, residues 397-650 (human, UniProt Q96NW4 397-650); assay: ITC; Nano ITC; VARP constructs at 60 μM in the cell at 4°C, Rab constructs at 300 μM titrated, 24 injections of 2 μl; 50 mM HEPES pH 7.4, 200 mM NaCl, 5 mM MgCl2, 1 mM TCEP
T2 construct: VARP (VPS9-domain ankyrin repeat protein; 1,050 residues), residues 397-650, contains ANKRD1; source: E. coli Rosetta 2 pLysS, purified (GSH-sepharose, PreScission cleavage, Superdex 75)

[3] = molecular target: B2; assay: as above
[4] = molecular target: T1, SeMet-Rab32 1-225 …; assay: crystal structure; sitting drop vapor diffusion at 18°C, PEG 3350, 200 mM sodium citrate pH 8.0; molecular replacement

T2 sequence (Q96NW4 397-650): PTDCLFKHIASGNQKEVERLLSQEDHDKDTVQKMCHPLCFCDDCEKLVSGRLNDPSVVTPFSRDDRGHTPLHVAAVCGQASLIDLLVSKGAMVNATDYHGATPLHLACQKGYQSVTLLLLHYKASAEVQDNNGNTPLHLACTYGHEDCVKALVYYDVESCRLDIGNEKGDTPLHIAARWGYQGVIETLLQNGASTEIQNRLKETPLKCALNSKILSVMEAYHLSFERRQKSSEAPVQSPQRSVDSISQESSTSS

Kd [3] [µM]	Binder	other results
	B1	fold decrease in binding against the wild-type fragment [1]: ~20 fold
	B2	Kd [2]: 7 µM
~22	B3	
2.5	B4	binding result [4]: binds
~8	B5	
> 300	B6	
